Assay results reported in publication PMC10689493 (Nature Communications, 2023).

Target: T1, biotinylated SARS-CoV-2 Spike protein (WA-2, 2 P) (SARS-CoV-2 WA-2 (entry: reference …, UniProt P0DTC2, stabilised, biotinylated))
T1 construct: source: bought: R&D systems
Assay: SPR
Conditions: both partners purified

B1: DH1057.1 FAB fragment (Fab, V domains shown)
VH: EVQLVESGTEVKKPGASVKVSCKTSGYIFTNYYIHWVRQAPGQGLEWMGIFNPNGGGTSYAQKFQGRITLTGNTSANTGYMVLRSLTSEDTAVYYCARDPRTSGDNDGFDMWGQGTKVTVSS
VL: VLTQSPATLSLSPGERATLSCRASQSLSSYNYLAWYQQKPGQAPRLLIYAASKRATGIPARFSGSGSGTDFTLTISSLEPEDFAVYFCQQRSNRPPAWTFGQGTKVEIK
Kd: 11.5 nM

B2: S2P6 FAB fragment (Fab, V domains shown)
VH: EVQLVQSGAEVKKPGASVKVSCKASGYTFTSQYMHWVRQAPGQGLEWIGIINPSGVHTSYAQKFQGRVTLTRDTSTSTLYMELSSLRSEDTAVYYCARGSPKGAFDYWGQGTLVTVSS
VL: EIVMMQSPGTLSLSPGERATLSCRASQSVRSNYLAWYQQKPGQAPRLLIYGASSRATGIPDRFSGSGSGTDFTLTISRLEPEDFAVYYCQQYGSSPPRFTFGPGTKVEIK
Kd: 0.4 nM
